Source: patent US20240173424A1, “ANTI-NECTIN-4-ANTIBODY EXATECAN CONJUGATES” (EMERGENCE THERAPEUTICS AG, priority 2021, published 2024)

Legend:
[1] = target: T1, Nectin-4 expressed by tumors and Nectin-4 expressed by human keratinocytes (Homo sapiens, UniProt Q96NY8); experiment: Differential binding to tumor cells and human keratinocytes; conditions: in vitro differentiated Nectin-4 expressing keratinocytes
T1 construct: Cells or cell lines (10,000-50,000) expressing Nectin-4 (naturally or transfected); endogenous in cells; host or cells: SUM190/SUM190PT (also SUM149 in IHC), NHEK differentiated with 0.1 mM CaCl2, human skin sections
T1 sequence (Q96NY8 32-510): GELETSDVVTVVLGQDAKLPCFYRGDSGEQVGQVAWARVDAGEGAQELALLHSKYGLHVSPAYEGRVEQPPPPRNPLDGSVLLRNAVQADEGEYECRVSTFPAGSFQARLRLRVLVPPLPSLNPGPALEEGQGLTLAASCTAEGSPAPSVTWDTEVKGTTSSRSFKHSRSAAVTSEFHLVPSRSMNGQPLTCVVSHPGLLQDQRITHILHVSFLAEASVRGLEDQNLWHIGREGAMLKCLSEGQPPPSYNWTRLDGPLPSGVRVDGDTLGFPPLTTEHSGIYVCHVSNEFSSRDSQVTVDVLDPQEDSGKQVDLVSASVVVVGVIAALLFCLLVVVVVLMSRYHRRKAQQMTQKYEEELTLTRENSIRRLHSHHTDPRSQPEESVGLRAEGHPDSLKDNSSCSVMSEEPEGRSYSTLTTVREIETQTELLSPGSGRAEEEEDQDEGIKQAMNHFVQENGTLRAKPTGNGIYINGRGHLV
From the text: FIG. 6: Differential binding to Nectin-4 expressed by tumor cell line and normal differentiated human keratinocytes. […] Cells were then stained with phycoerythrin conjugate goat anti human Fc antibody. Normalized mean fluorescence intensities are shown. Non-linear curve fitting (4 parameters) was done with GraphPad Prism 9 software. Horizontal bar is placed at 50% of maximum staining intensity obtained with HA22 antibody on SUM190 cells.
FIG. 7: Differential binding to Nectin-4 expressed by tumor cell line and normal differentiated human keratinocytes. Detection by flow cytometry. • Flow cytometry analysis of TNBC cell line (SUM190, A) and normal differentiated (0.1 mM CaCl2) human keratinocytes (NHEK, B) using 5 μg/mL of HA22 (Enfortumab), Ch-5A12.2, Ch-15A7.5, and Ch-8F06. Cells were then stained with phycoerythrin conjugate goat anti human Fc antibody. Normalized mean fluorescence intensities are shown.
FIG. 8: Differential binding to Nectin-4 expressed by tumor cell line and human keratinocytes. Detection by immuno-histochemistry. Cryo-preserved OCT-embedded blocks of high expressing levels of Nectin-4 tumor cell line (SUM190), low expressing levels of Nectin-4 tumor cell line (SUM149), human and cynomolgus skin were processed for staining with 15A7.5 mAb (A) and 9A2.7 mAb (B). Quick score reported for each mAb are shown (A, B). C, ratio of quick score SUM190 over human skin. […]
Remaining blocks were stored at −80° C. until further use. […] Several dilution of each mAb were tested to optimize noise to signal ratio and 0.5 μg/ml of mouse 15A7.5 mAb and 10 µg/mL of mouse 9A2.7 mAb were determined as optimal. […] Both the stained cells proportion and the staining intensity were evaluated for each field. […] Scoring procedure was as follows: (i) The proportion of cells stained positively was estimated and a score from 0 to 4 was be assigned for each field (0=0-5%; 1=5-25%; 2=25-50%; 3=50-75%; and 4=75-100%); and (ii) The staining intensity was scored as 0, 1, 2, or 3 corresponding to the presence of negative, weak, intermediate, and strong brown staining, respectively. […]

[2] = tested on: human Nectin-4; experiment: ELISA on coated Nectin-4 Fc fusion proteins (Nec4-VCC, Nec4-V); format: binding; conditions: statement in FIG. 3 legend on the competitor mAbs
Description: Detection by ELISA. • Ninety-six-wells plates were coated, as indicated, with 5 μg/mL Nectin-1 extracellular domain Fc fusion recombinant protein (Nec1-VCC), or Nectin-4 IgV-like domain Fc fusion recombinant protein (Nec4-V), or Nectin-4 extracellular domain Fc fusion recombinant protein (Nec4-VCC) overnight at 4° ° C.
FIG. 3: Characterization of Ch-15A7.5 epitope. Competition assay was performed by ELISA. • Ninety-six-wells plates were coated with 5 μg/mL of Nectin-4 extracellular domain Fc fusion recombinant protein (Nec4-VCC) overnight at 4° C. Binding of peroxidase-conjugated Ch-15A7.5 mAb (5 μg/mL) was measured in presence of increasing concentrations (2.75 ng/ml-6 μg/mL) of Rituximab, Ch-15A7 mAb, Enfortumab (HA22), Ch-N41 mAb and Ch-14A5 mAb.
A sandwich enzyme-linked immunosorbent assay was used to control specificity of Ch-15A7.5 antibody and to perform competition assays between different mAbs. Ninety-six-wells plates were coated with 10 nM of Nectin-4-VCC-Fc, Nectin-1-VCC-Fc (entire extracellular part) or Nectin-4-V-Fc (comprising only the IgV domain) overnight at +4° C. After washes and saturation with PBS 1% BSA, cells were incubated for 2 hours at 25° C. with 10 nM of peroxidase-conjugated Ch-15A7.5 mAb. In the case of competition, binding of 0.5 nM of peroxidase conjugated Ch-15A7.5 mAb was measured in the presence of variable concentration (0.018 nM to 40 nM) of “cold” mAb. One hundred μL of peroxidase substrate was added (One Step ABST, Pierce), and OD was red at 405 nm.

[3] = tested on: SUM190PT cells; experiment: SUM190PT orthotopic xenograft in NSG mice; format: in vivo, mouse; conditions: SUM190 grafted NSG mice, single intravenous injection, 4 or 8 mg/kg
From the text: Treatment of mice (single intravenous injection) started when tumors reached approximately 150 mm^3. […] Tumor sizes (n=10/group) were monitored with a caliper twice a week thereafter and sizes were reported with the following formula (LxlxhxPi/6).
NOD/SCID (nonobese diabetic/severe combined immunodeficient)/gc null mice (NSG) were obtained from Charles River Laboratory (Margate, UK). Six to seven-weeks old females (n=5/group) were orthotopically xenografted bilaterally with the SUM190PT (0.5×10^6) cells embedded in Matrigel. Treatment with ADC was performed as mentioned in the respective experiments. Tumor sizes (n=10/group) were monitored with a caliper twice a week thereafter and sizes were reported with the following formula (LxlxhxPi/6).

[4] = tested on: human Nectin-4; experiment: Flow cytometry of MDA-MB231 transfected with Flag-tagged Nectin-4; format: binding; conditions: MDA-MB231 transfected with Nectin-4, 0.3 ng/ml-5 μg/mL
Description: Detection by flow cytometry. • Flow cytometry analysis of MDA-MB231 transfected with the N-terminal Flag-tagged epitope of Nectin-4 using a dose range (0.3 ng/ml-5 μg/mL) of Ch-15A7.5 or Ch-5A12.2 antibodies Parental MDA-MB231 cells are included as controls. Cells were then stained with phycoerythrin conjugate goat anti human Fc antibody. The normalized mean fluorescence intensity is shown. Inlay: staining of parental MDA-MB231 cells with anti Nectin-1, -2 and -3 mAbs ([…]). Mean fluorescence intensity is represented.
Human breast carcinoma cell line MDA-MB231 (ATCC, Manassas, VA) was cultured in DMEM supplemented with 10% fetal bovine serum, 50 IU/mL penicillin, 50 μg/mL streptomycin and 2 mM glutamine. The cells were transfected with expression vector p3XFLR4.C1 containing a PVRL4 cDNA. Human triple negative breast cancer cell line SUM190PT (BioIVT, Westbury, NY) was cultures in Ham's F12 medium with 5% fetal bovine serum, 1% non-essential amino acids, 1% Hepes, 1% insulin, 1 μg/mL hydrocortisone, 6.8 ng/ml Triiodo L-tyrosine, 100 IU/mL penicillin, 100 μg/mL streptomycin and 2 mM glutamine. Chinese hamster ovary CHO cell line was cultured in DMEM supplemented with 10% fetal bovine serum, 100 IU/mL penicillin, 100 μg/mL streptomycin and 2 mM glutamine. […]

B1: mAb 3A1.4: monoclonal anti-Nectin-4 antibody characterized by SEQ ID NO:s 96-103 (antibody, V domains shown)
VH: DVQLQESGPSLVKPSQTLSLTCSVTGDSITSGYWNWIRKFPGNKLEYMGYISNSGITYYNPSLKSRISITRDTSKNQYFLQLNSVTAEDTATYYCTRFGSTMILYYTMDYWGQGTSVTVSS
VL: DIVMTQSPVTLSVTPGDRVSLSCRASQSISDYLHWYQQKSQESPRLLIKYASKSISGIPSRFSGSGSGSNFTLSINSVEPEDVGVYYCQNGHSFPLTFGAGTKLELK
modifications: VH_3A1.4; VK_3A1.4
- affinity to Nectin-4 expressed by tumors in comparison to Nectin-4 expressed by human keratinocytes [1]: higher affinity

B2: HA22: human monoclonal anti-Nectin-4 antibody described in WO2012/047724, antibody of Enfortumab vedotin (antibody, V domains shown)
VH: EVQLVESGGGLVQPGGSLRLSCAASGFTFSSYNMNWVRQAPGKGLEWVSYISSSSSTIYYADSVKGRFTISRDNAKNSLSLQMNSLRDEDTAVYYCARAYYYGMDVWGQGTTVTVSS
VL: DIQMTQSPSSVSASVGDRVTITCRASQGISGWLAWYQQKPGKAPKFLIYAASTLQSGVPSRFSGSGSGTDFTLTISSLQPEDFATYYCQQANSFPPTFGGGTKVEIK
- recognition of the IgV domain of Nectin-4 [2]: recognize the IgV domain of Nectin-4

B3: HA22-MC-GGFG-DX8951 (conjugate, chains of the INN, looked up)
VH: EVQLVESGGGLVKPGGSLKLSCAASGFAFSIYDMSWVRQTPEKCLEWVAYISSGGGTTYYPDTVKGRFTISRDNAKNTLYLQMSSLKSEDTAMYYCARHSGYGTHWGVLFAYWGQGTLVTVSA
VL: DIQMTQTTSSLSASLGDRVTISCRASQDISNYLNWYQQKPDGTVKLLIYYTSILHSGVPSRFSGSGSGTDYSLTISNLEQEDFATYFCQQGNTLPWTFGCGTKLEI
modifications: MC-GGFG-DX8951 (exatecan) payload
- tumor regression [3]: induces a long-lasting tumor regression period

B4: Ch-5A12.2: chimeric antibody of 5A12.2 (antibody, V domains shown)
VH: QIQLQQSGAELVKPGASVTLSCKTSGFTFNSMYISWLKQKPGQSLEWIAWIYAGTGGTRFNQKFTGKVQLTVDTSSSTAYMQFSSLTTDDSAIYYCAIRSGFVPMDYWGQGTSVTVSS
VL: SIVMTQTPKFLLVSAGDRVTITCKASQSVSNDVAWYQQKPGQSPKLLIYYASNRYTGVPDRFTGSGYGTDFTFTISTVQAEDLAVYFCQQDYSSPWTFGGGTKLEIK
- recognition of human Nectin-4 [4]: recognize human Nectin-4
